The values that follow come from article PMC7808410 (Nature methods, 2021).

As usually defined, the stoichiometry N is a count of units in the complex or per binding partner.

The labels stand for the following.
B1: E. coli glutamate decarboxylase GadB (enzyme)
chain: MDKKQVTDLRSELLDSRFGAKSISTIAESKRFPLHEMRDDVAFQIINDELYLDGNARQNLATFCQTWDDENVHKLMDLSINKNWIDKEEYPQSAAIDLRCVNMVADLWHAPAPKNGQAVGTNTIGSSEACMLGGMAMKWRWRKRMEAAGKPTDKPNLVCGPVQICWHKFARYWDVELREIPMRPGQLFMDPKRMIEACDENTIGVVPTFGVTYTGNYEFPQPLHDALDKFQADTGIDIDMHIDAASGGFLAPFVAPDIVWDFRLPRVKSISASGHKFGLAPLGCGWVIWRDEEALPQELVFNVDYLGGQIGTFAINFSRPAGQVIAQYYEFLRLGREGYTKVQNASYQVAAYLADEIAKLGPYEFICTGRPDEGIPAVCFKLKDGEDPGYTLYDLSERLRLRGWQVPAFTLGGEATDIVVMRIMCRRGFEMDFAELLLEDYKASLKYLSDHPKLQGIAQQNSFKHT
B2: E. coli OmpC outer membrane osmoporin channel (natural protein)
chain: AEVYNKDGNKLDLYGKVDGLHYFSDNKDVDGDQTYMRLGFKGETQVTDQLTGYGQWEYQIQGNSAENENNSWTRVAFAGLKFQDVGSFDYGRNYGVVYDVTSWTDVLPEFGGDTYGSDNFMQQRGNGFATYRNTDFFGLVDGLNFAVQYQGKNGNPSGEGFTSGVTNNGRDALRQNGDGVGGSITYDYEGFGIGGAISSSKRTDAQNTAAYIGNGDRAETYTGGLKYDANNIYLAAQYTQTYNATRVGSLGWANKAQNFEAVAQYQFDFGLRPSLAYLQSKGKNLGRGYDDEDILKYVDVGATYYFNKNMSTYVDYKINLLDDNQFTRDAGINTDNIVALGLVYQF
B3: E. coli OmpF porin channel (natural protein)
chain: AEIYNKDGNKVDLYGKAVGLHYFSKGNGENSYGGNGDMTYARLGFKGETQINSDLTGYGQWEYNFQGNNSEGADAQTGNKTRLAFAGLKYADVGSFDYGRNYGVVYDALGYTDMLPEFGGDTAYSDDFFVGRVGGVATYRNSNFFGLVDGLNFAVQYLGKNERDTARRSNGDGVGGSISYEYEGFGIVGAYGAADRTNLQEAQPLGNGKKAEQWATGLKYDANNIYLAANYGETRNATPITNKFTNTSGFANKTQDVLLVAQYQFDFGLRPSIAYTKSKAKDVEGIGDVDLVNYFEVGATYYFNKNMSTYVDYIINQIDSDNKLGVGSDDTVAVGIVYQF

The series concerns the molecule itself. As to the kind of experiment: cryo-EM structure.
For B1, the “stoichiometry N” value stood at 6. Under B2 stands 3; under B3, 3.
